Where no end group is shown, it is not given here.
T1: A32-CTLESIMNTLESEEDFRKY (cyclic) (human, also: biotinylated in screening assay, position not given here)
T1 construct: Human Nav1.7 peptide; also called Nav1.7 peptide A32
T1 peptide: cyclo(CTLESIMNTLESEEDFRKY)

T2: B11.7 Cyclo[biotinyl-PEG-cysPMTEEFKN] (not fully specified; cyclic; biotinyl-PEG on the cysteine)
T2 construct: also called B11.7 peptide; Nav 1.7 peptide
T2 peptide: CPMTEEFKN

T3: B11.2/3 Cyclo[biotinyl-PEG-cysEHYPMTEQFSS] (not fully specified (N-terminus, bridges); printed as Cyclo[biotinyl-PEG-cysEHYPMTEQFSS]; also: biotinyl-PEG on the cysteine)
T3 construct: also called Nav 1.2 and 1.3 E1 peptide
T3 peptide: CEHYPMTEQFSS

T4: B11.4 Cyclo[biotinyl-PEG-cysEHYPMTEHFDN] (not fully specified (N-terminus, bridges); printed as Cyclo[biotinyl-PEG-cysEHYPMTEHFDN]; also: biotinyl-PEG on the cysteine)
T4 construct: also called Nav 1.4 E1 peptide
T4 peptide: CEHYPMTEHFDN

T5: B11.8 Cyclo[biotinyl-PEG-cysEHHGMSPTFEA] (not fully specified; cyclic; biotinyl-PEG on the cysteine)
T5 construct: also called Nav 1.8 E1 peptide
T5 peptide: CEHHGMSPTFEA

T6: B11.9 Cyclo[biotinyl-PEG-cysEHHKMEASFEK] (not fully specified; cyclic; biotinyl-PEG on the cysteine)
T6 construct: also called Nav 1.9 E1 peptide
T6 peptide: CEHHKMEASFEK

T7: B11.5 Cyclo[biotinyl-PEG-cysEHYNMTSEFEE] (not fully specified; cyclic; biotinyl-PEG on the cysteine)
T7 construct: also called Nav 1.5 E1 peptide
T7 peptide: CEHYNMTSEFEE

T8: B11.1 Cyclo[biotinyl-PEG-cysEHYPMTDHFNN] (not fully specified (N-terminus, bridges); printed as Cyclo[biotinyl-PEG-cysEHYPMTDHFNN]; also: biotinyl-PEG on the cysteine)
T8 construct: also called Nav 1.1 E1 peptide
T8 peptide: CEHYPMTDHFNN

T9: B11.6 Cyclo[biotinyl-PEG-cysEHHPMTPQFEH] (not fully specified; cyclic; biotinyl-PEG on the cysteine)
T9 construct: also called Nav 1.6 E1 peptide
T9 peptide: CEHHPMTPQFEH

T10: B11-CPMTEEFKN (cyclic) (human, also: biotinylated in screening assay, position not given here)
T10 construct: Human Nav1.7 peptide; also called Nav1.7 peptide B11
T10 peptide: cyclo(CPMTEEFKN)


Tests used:
[1] = target: T1, A32-CTLESIMNTLESEEDFRKY (cyclic); assay: peptide specificity; bead-based FMAT screen on biotinylated peptide
Method: (§1) SLAM was performed using substantially the methods described in Tickle et al. 2009 (JALA, Vol. 14, number 5, p303-307). Briefly, SLAM cultures were set up using rabbit splenocytes or PBMC and supernatants were first screened for their ability to bind biotinylated peptide in a bead-based assay in the FMAT. […] Positives from this screen were then put through a negative screen to identify non-specific antibodies.

[2] = target: human Nav1.7 channel (type IX voltage-gated sodium channel alpha subunit) (human, UniProt Q15858 1-1988); assay: cell-based or functional assay
[3] = target: T2, B11.7 Cyclo[biotinyl-PEG-cysPMTEEFKN]; assay: peptide binding ELISA (FIG. 3K legend)
Method: (§2) Nunc 96 well plates were coated overnight at 4° C. in 5 ug/ml Streptavidin (Jackson 016-000-114) 100 ul/well in carbonate coating buffer. Plates were washed four times in PBS/tween and 200 ul/well of block (1% BSA in PBS) was added for 1 hour at RT. Plates were washed four times in PBS/tween and 100 ul/well of biotinylated peptide at 5 ug/ml was added for 1 hour at RT. Plates were washed four times in PBS/tween and 100 ul/well of antibody added (starting at 10 ug/ml diluting in block in half logs down the plate) for 1 hour at RT. Plates were washed four times in PBS/tween and […] goat anti rabbit Fc HRP (Jackson 111-036-046) added for 1 hour at RT. Plates were washed four times in PBS/tween and 100 ul/well TMB (3,3′,5,5′ Tetramethylbenzidine) solution added. 50 ul/well of NaF was added to stop reaction and absorbance read at 630 nm.

[4] = target: T3, B11.2/3 …; assay: peptide binding ELISA, biotinylated peptide on streptavidin
Method: as §2

[5] = target: T4, B11.4 Cyclo[biotinyl-PEG-cysEHYPMTEHFDN]; assay: as above
Method: as §2

[6] = target: T5, B11.8 Cyclo[biotinyl-PEG-cysEHHGMSPTFEA]; assay: as above
Method: as §2

[7] = target: T6, B11.9 Cyclo[biotinyl-PEG-cysEHHKMEASFEK]; assay: as above
Method: as §2

[8] = target: T7, B11.5 Cyclo[biotinyl-PEG-cysEHYNMTSEFEE]; assay: as above
Method: as §2

[9] = target: T8, B11.1 Cyclo[biotinyl-PEG-cysEHYPMTDHFNN]; assay: as above
Method: as §2

[10] = target: T9, B11.6 Cyclo[biotinyl-PEG-cysEHHPMTPQFEH]; assay: as above
Method: as §2

[11] = target: T10, B11-CPMTEEFKN (cyclic); assay: peptide specificity; bead-based FMAT screen on biotinylated peptide
Method: as §1

[12] = target: T2, B11.7 Cyclo[biotinyl-PEG-cysPMTEEFKN]; assay: peptide binding ELISA (FIG. 3J legend)
Method: as §2

| Binder | binding result [1] | Nav1.7 inhibition (%) at 25 µg/ml, automated patch clamp, HEK cells [2] | binding result [3] | binding result [4] | binding result [5] | binding result [6] | binding result [7] | binding result [8] | binding result [9] | binding result [10] | binding result [11] | binding result [12] |
| --- | --- | --- | --- | --- | --- | --- | --- | --- | --- | --- | --- | --- |
| CA167_00932 (antibody, rabbit IgG1, V domains shown, Rabbit monoclonal from rabbit 3822; also called antibody 932) VH: QSLEESGGRLVTPGTPLTLTCTVSGFSLSRYWMSWVRQAPGKGLEWIGNIGGGSGSTLYAPWAKGRSTISKTSTTVDLKITSPTTEDTATYFCGRYVKNGGGYRLDLWGPGTLVTVS VL: AAVLTQTPSSVSAAVGGTVTIKCQSSQSVYNNNEFSWYQQKPGQPPKLLIYDASKLASGVPSRFSGSGSGTQFTLTISGVQCDDVATYYCLGGYNDDTNRWAFGGGTEVVVE | binds | 27% |  |  |  |  |  |  |  |  |  |  |
| CA167_01080 (antibody, rabbit IgG1, V domains shown, Rabbit monoclonal from rabbit 3824) VH: QSLEESGGRLVTPETPLTLTCTASGIDLSKWPMTWVRQAPGKGLEWIGIIGRSGSTNYASWAKGRFTISKTSTTVDLKMTSPTTEDTATYFCARGGSYYDLWGQGTLVTVS VL: AQVLTQTASPVSAAVGNTVTITCQSSQSVWKNNDLSWYQQKLGQPPKLLIYYASTLASGVSSRFKASGSGTQFTLTISDVQCDDAGTYYCVGSYDCSSADCNAFGGGTKVVVK |  | 46% | binds | no binding (tested: antibody starting at 10 ug/ml) | no binding (tested: antibody starting at 10 ug/ml) | no binding (tested: antibody starting at 10 ug/ml) | no binding (tested: antibody starting at 10 ug/ml) | no binding (tested: antibody starting at 10 ug/ml) | no binding (tested: antibody starting at 10 ug/ml) | no binding (tested: antibody starting at 10 ug/ml) | binds |  |
| CA167_00983 (antibody, rabbit IgG1, V domains shown, Rabbit monoclonal from rabbit 3824) VH: QSVEESGGRLVTPGTPLTLTCTVSGFSLSNYAMSWVRQAPGKGLEWIGIIGKSGSTAYASWAKGRFTISRTSTTVDLEITSPTTEDTATYFCVRFVLLWGPGTLVTVS VL: AQVLTQTASPVSAAVGGTVTINCQSSQSVYKNNDLAWYQQKPGQPPKLLIYYASTLASGVSSRFKGSGSGTEFTLTISDAQCDDAATYYCLGSYDCSSADCNAFGGGTKVVVK |  | 41% |  | no binding (tested: antibody starting at 10 ug/ml) | no binding (tested: antibody starting at 10 ug/ml) | no binding (tested: antibody starting at 10 ug/ml) | no binding (tested: antibody starting at 10 ug/ml) | no binding (tested: antibody starting at 10 ug/ml) | no binding (tested: antibody starting at 10 ug/ml) | no binding (tested: antibody starting at 10 ug/ml) | binds | binds |

Reference: patent US20110135662A1 (UCB, published 2011)
